Data as given in PMC4480739, “Oncogenic mutations of thyroid hormone receptor β” (Oncotarget, 2015).

How the values were obtained:
[1] = target: GST fused p85α-CSH2 (C-terminal Src-homology 2 domain of p85α) (UniProt P27986); assay: pull-down; GST-CSH2 (~5 μg, E. coli expressed) incubated with equal amounts of in vitro translated TRβ1 or mutants, in the presence of T3; bound receptor detected by Western blot with anti-TRβ1; band intensities quantified with ImageJ
[2] = target: T1, GST fused p85α-CSH2 (C-terminal Src-homology 2 domain of p85α) (UniProt P27986 623-706); assay: as above; conditions: one partner purified
T1 construct: C-terminal SH2 (CSH2) domain of the p85α regulatory subunit of PI3K; the limits 623-706 are told of the domain in the discussion, not in the methods of this assay; also called GST–CSH2; CSH2-conjugated to GST; source: E. coli expressed
T1 sequence (P27986 623-706): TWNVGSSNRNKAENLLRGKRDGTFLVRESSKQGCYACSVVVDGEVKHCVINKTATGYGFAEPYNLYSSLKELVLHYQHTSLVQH

Chain of GST fused p85α-CSH2 (C-terminal Src-homology 2 domain of p85α) (UniProt P27986) (P27986 623-706): as above
Chain of in vitro translated PV (P10828 whole entry): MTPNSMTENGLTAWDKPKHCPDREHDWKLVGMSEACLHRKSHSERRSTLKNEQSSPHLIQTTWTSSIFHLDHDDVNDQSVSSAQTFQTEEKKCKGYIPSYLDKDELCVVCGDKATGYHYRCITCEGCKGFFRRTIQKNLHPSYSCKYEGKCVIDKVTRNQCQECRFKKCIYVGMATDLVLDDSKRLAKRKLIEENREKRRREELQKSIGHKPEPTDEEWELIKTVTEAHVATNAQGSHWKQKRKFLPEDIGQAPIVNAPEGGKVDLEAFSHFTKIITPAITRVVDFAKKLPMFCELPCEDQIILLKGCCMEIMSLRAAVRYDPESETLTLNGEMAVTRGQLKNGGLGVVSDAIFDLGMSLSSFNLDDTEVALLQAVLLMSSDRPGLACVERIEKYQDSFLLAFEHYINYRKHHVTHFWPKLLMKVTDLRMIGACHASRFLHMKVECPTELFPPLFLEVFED

| fold association relative to TRβ1 [1] | fold association relative to TRβ1 [2] | Molecule |
| --- | --- | --- |
| 3 fold |  | in vitro translated PV (from UniProt P10828 1-461) (receptor) |
|  | 3 fold | in vitro translated AM (receptor, human, UniProt P10828 1-461, looked up, source: in vitro translated (TNT T7 quick coupled kit, Promega)) MTPNSMTENGLTAWDKPKHCPDREHDWKLVGMSEACLHRKSHSERRSTLKNEQSSPHLIQTTWTSSIFHLDHDDVNDQSVSSAQTFQTEEKKCKGYIPSYLDKDELCVVCGDKATGYHYRCITCEGCKGFFRRTIQKNLHPSYSCKYEGKCVIDKVTRNQCQECRFKKCIYVGMATDLVLDDSKRLAKRKLIEENREKRRREELQKSIGHKPEPTDEEWELIKTVTEAHVATNAQGSHWKQKRKFLPEDIGQAPIVNAPEGGKVDLEAFSHFTKIITPAITRVVDFAKKLPMFCELPCEDQIILLKGCCMEIMSLRAAVRYDPESETLTLNGEMAVTRGQLKNGGLGVVSDAIFDLGMSLSSFNLDDTEVALLQAVLLMSSDRPGLACVERIEKYQDSFLLAFEHYINYRKHHVTHFWPKLLMKVTDLRMIGACHCQPLPAHEGGMPTELFPPLFLEVFED |
